According to publication PMC12335825:

Target: MD39 HIV Env stabilized SOSIP trimer (MD39 HIV Env gp140) (HIV)
Assay: SEC-MALS; immunogens after S200 Increase size-exclusion chromatography in TBS; DAWN HELEOS II and Optilab T-rEX

Question: “MD39 HIV Env stabilized SOSIP trimer (MD39 HIV Env gp140)” was tested. Which stoichiometry N did it give?
Answer: Its stoichiometry N is 3.
